According to the DeepSol protein solubility set:

test: soluble on expression in E. coli; label from the status in PepcDB or PDB records

Q: With “MSLSRLLPDPDVAGAWMVRVGDADQSWIDPDDPTRLEFDYMQRIADHLDVHRPAGERMRVIHLGGAGMCLARYVAATRPTSPQIVCEPDAELTAEVRLKAPLPVRSGIKVRPVDGRSGVAAMREDFADVVILDAFDGARVPGDLVTVEFFADVSRILHSDGIGVANLADSAPLVWTKRVVRSVKEVFSNVCMAAEPATLKGRRYGNIVLAASNGPLHEEDLTRRCSGAAVPFRFIAGDALAKLLADARPFHDGDTESSEGHHHHHH” as the sequence, how does the “soluble on expression in E. coli” value read?
A: not soluble

Q: For “MSLSRSEEMHRLTENVYKTIMEQFNPSLRNFIAMGKNYEKALAGVTFAAKGYFDALVKMGELASESQGSKELGDVLFQMAEVHRQIQNQLEETLKSFHNELLTQLEQKVELDSRYLSAALKKYQTEQRSKGDALDKCQAELKKLRKKSQGSKNPQKYSDKELQYIDAISNKQGELENYVSDGYKTALTEERRRFCFLVEKQCAVAKNSAAYHSKGKELLAQKLPLWQQACADPNKIPDRAVQLMQQMANSNGSILPSALSASKSNLVISDPIPGAKPLPVPPELAPFVGRMSAQENVPVMNGVAGPDSEDYNPWADRKAAQPKSLSPPQSQSKLSDSYSNTLPVRKSVTPKNSYATTENKTLPRSSSMAAGLERNGRMRVKAIFSHAAGDNSTLLSFKEGDLITLLVPEARDGWHYGESEKTKMRGWFPFSYTRVLDSDGSDRLHMSLQQGKSSSTGNLLDKDDLALPPPDYGTSSRAFPTQTAGTFKQRPYSVAVPAFSQGLDDYGARSVSR”, which “soluble on expression in E. coli” value is on record?
A: not soluble

Q: With “MSLSTFDYDLIIIGSGPSGRAAAIQAGKLKRRVLVIDRKDRLGGVSVHTGTIPSKTLRETVLNLSGWRERSFYGRSYRVKDRISAEDLKARLHMTLDYEVDVLEHQFNRNHIDTLNGLARFVGPHEIEVATEAGDTTRLTAAKFLIATGTKTYRPDYVPFNGKTVVDGDDFLEMERIPRSLAVIGAGVIGVEYASMFSALDVRVTLIEPRETFLDFIDRTLIQEFTHQIRENGVDLRLGSAVEKIEDTGSHIEISLANGRHIRAEMLLFAAGRMGATSALNLDAVGLETDHRNRITVDRKTYQTSVPHIYATGDVIGHPSLASTSMQQGRVAACHALETPTLPESPWFPYGIYSVPEMSTCGMSEEELQERGIPYEVGVARFRETSRGHIMGLEHGMLKMLLSLKTRRVLGVQIVGEGATELIHIGQAVMNLKGTVDYFVQNTFNYPTLAEAYRTAGLDAFNRMPIPEEFKVKEGHHHHHH” as the sequence, how does the “soluble on expression in E. coli” value read?
A: soluble

Q: Which “soluble on expression in E. coli” value does the source give for “MSLSVPFEYTPIAQSVLDECEHLDTASLSDALDSLGIDGGLPGIASQVPGTRCVGIAFTVQYQPVDASEGFRGAANYIDQVPSGSVIVSSNSGRHDCTVWGDIMTHFALANGIKGTVIDGVARDIDTVINCNYPLFSRGRFMQSAKNRTQLKAVQVPLVIDGITIQPGDLMVCDGSGCVVVPQQLAAEVVLRARAVEQTERRIIEAISSGSTLEQARMTYRYDQPWLSEAEHGGTQEGHHHHHH” here?
A: soluble

Q: With “MSLSVPLLSRVGADRADRLRTDMEAAAAGWPGAALLRVDSRNRVLVANGRVLLGAAIELADKPPPEAVFLGRVEGGRHVWAVRAALQPIADPDIPAEAVDLRGLGRIMDDTSSQLVSSASALLNWHDNARFSALDGAPTKPARAGWSRVNPITGHEEFPRIDPAVICLVHDGADRAVLARQAAWPERMFSLLAGFVEAGESFEVCVAREIREEIGLTVRDVRYLGSQQWPFPRSLMVGFHALGDPDEEFSFSDGEIAEAAWFTRDEVRAALAAGDWSSASESKLLLPGSISIARVIIESWAACEEGHHHHHH” as the sequence, how does the “soluble on expression in E. coli” value read?
A: soluble

Q: For “MSLSYEYFPGFYDRLMDSELYDEWLEFSADFIGDTSKKVLDLACGTAEFALRLSFLGHQVTGVDLSKEMVAVAKEKVAAAEINLSILEQDMSKLALNQTFDVITCFCDSLNYLETEQALENTIKAVSDHLTPNGLFLFDVHSVFKIDQGFKDYSYGDSDEEISIIWNSFPGEYPHSVEHELTFYILGEDNMYNRVDELHKERTYPITTYKELLKKYGFSKIDVYADFSHENPTNSSERIFFVARKEGHHHHHH”, which “soluble on expression in E. coli” value is on record?
A: soluble

Q: Which “soluble on expression in E. coli” value does the source give for “MSLTAAVRHSDVLVVGAGSAGSVVAERLSMDSSCVVTVLEAGPGLADPGLLAQTANGLQLPIGAGSPLVERYRTRLTDRPVRHLPIVRGATVGGSGAINGGYFCRGLPSDFDRASIPGWAWSDVLEHFRAIETDLDFETPVHGRSGPIPVRRTHEMTGITESFMAAAEDAGFAWIADLNDVGPEMPSGVGAVPLNIVNGVRTSSAVGYLMPALGRPNLTLLARTRAVRLRFSATTAVGVDAIGPGGPVSLSADRIVLCAGAIQSAHLLMLSGVGEEEVLRSAGVKVLMALPVGMGCSDHPEWVMPTNWAVAVDRPVLEVLLSTHDGIEIRPYTGGFVAMTGDGTAGHRDWPHIGVALMQPRARGRITLVSSDPQIPVRIEHRYDSEPADVAALRQGSALAHELCGAATRIGPAVWATSQHLCGSAPMGTDDDPRAVVDPRCRVRGIENLWVIDGSVLPSITSRGPHATIVMLGHRAAEFVQEGHHHHHH” here?
A: soluble

Q: For “MSLTDASFPALPPPLVSLGDLAWDVLAKPDTLLLPGGDTTGRLELSGGGSAANLAVWAARLGAPTTFVGKIGQDRFGELATAELRAEGVRAEVLASAAHPTGVILALIDRRGQRAMLTGQGADWELLPEELPRDVLSSAGHLHLTAWSLFRDPPRAAALEAARIAKAGGATLSLDPGSFQMIQQLGREAFLNIVDALPFDVMFPNDDEARAMSGERDNEAALTWLRARYPRALIALKMDEDGALIEGPQTARVQVPATRDPLVDATGAGDAFGGAFLSQWLRHHDAERAARVAVQVGGWVVSRFGARPPADPDLTRRLASVGADLLTPDPAAAPDPSQDSPEVNEGHHHHHH”, which “soluble on expression in E. coli” value is on record?
A: soluble

Q: For “MSLTEPRIVATYHIASDAERIEQRALALAIEQSVECPLEAIGDPAIVANIVGRVEDVAELQPGRYAVRIGLAAATAPAEPGQLLNMLFGNSSIQPDIALADVELPAHYLTAFGGPRVGLAGIRTLTGAQSRALTASALKPQGLSPAALASIAHQLALGGVDLIKDDHGLADQAFSPFAERAAAVGKAVREANAARGGRTLYAPNISGTLDDMRRQLGVIRDEGIGAVLVAPMIVGVSNFHAIVKEAAGLVVVAHPAMAGAAKIAAPLLLGRLFRLFGADATVFPNYGGRFAYSTASCLALAQAARDPFGKLNACIPTPAGGIMLQRVNELLRFYGQDVMLLIGGSLLASRERLTEQASRFVNKVADYGQREGHHHHHH”, which “soluble on expression in E. coli” value is on record?
A: soluble

Q: With “MSLTERRQATAIVRAHGHTSLARLTLLEDKSYCFSPSGESLIAFVQRGRGAIALGDPIGPARDREAIIQQFLRECQQNDWLPAFYQVLPDDLPLYQRQGLASDQIGQEAVIPLQDFSLQGKRGRGFRSTLSRLERAGYRFEVIPAAEIYPLLPELRFVSDTWLKRMKGPEKRFSVGWFDRDYLTSGSIAVVRSQDGQIQAFANWVEEFQRNELTLDLIRFLPSAESSTMEFLLVNTILAAKDRGFDSFSLGLSALSGLDQLDQPNQVEQGLDYLYRHLDRFYRFQGLHSFKEKFHPDWQPRYFVYPNLAAIPSLVVTLVRADSGDRWLDYFRANDEGHHHHHH” as the sequence, how does the “soluble on expression in E. coli” value read?
A: not soluble

Q: Which “soluble on expression in E. coli” value does the source give for “MSLTETLDNTQDLLMDVDKYNFWEVEGEDAAGEVNSKDMDMVGVDEKSGAPVFRLTDNNDEQPLNENENGNFKFKMNTIATENMAYLTEKDKYKLYPSKVPGYDNSREYSSYVSKVFELYNDLDEHRVYSAPTIGIINKSYAREHNYVLNVAFESFVTELNFFIESIKNDPNLINRVLQLEESITILNCLKTIHFTFDSLQNESDSREQFVNSLIDWVNRSDGEPKEEYIEQIFTRNDNIEVFNTLQFWKLVNKLLLRGLFEQALGCLERSKIMDFLKSQCEVSANILGDAIALLEQYPIDSSETFREWKFMVLGLQQTYSNSNTKITGELRDYIEDTLLLIGGNQSKLLQYSSTWYEAYASFYLYYIPTLELSHDYLELALSTHPLDLTKNWEQACVNIINNKIYSILPVLESLDLCTAATTAALCEAKGILENFLDDDTKTFKGNVDKLVTPVHGMASYLLNQFAFELCSQEEKTLWPVAIGLISISPFESASVKRTTISEVLPRFPFSTNDDIEWMLAVCAKWRLPKIAKKIYKILGSKLQAEGNVIESMTNFSKAGEFDIVKNEGHHHHHH” here?
A: soluble

Q: For “MSLTGANDSNYDPFAGLSFRVGVAENKNTTFRNKMEDVHTYIANFAERVDWGYFAIFDGHAGKDTARWCGNNLHTLLEEEIDRNSDEGSPPPTPITGKDDLREDLYKCFVKADELIEKSGQGKSGCTAAVAVLRWESDNEEPVSHTKSQDGGKFDFKPTKNHKRLLYTSNVGDLRIVLCRAGQAYRLSYDHKATDTHEINRIEDNGGLVLKNRVNGVLAVTRSLGDTYMKLLVIGVPFTTATEITADDEFIIIACDGLWDVVSDKHACKLAAESFKQGYSPLQVAKKLCQFAIELSTTDNVTVMVVQLDNDVFSEGHHHHHH”, which “soluble on expression in E. coli” value is on record?
A: soluble

Q: For “MSLTGGLFGAKPAGSTTGGLFGANTSTQQPAATQGSGLFGAKPTGTGLFGGQTQGSTTSGASAGGLFGKSANPAPGGAGLFGNTAQSNSVSSNTGGLFGSKPAATGGLFGGQPSAPLSTFGQNPATTSLQTPGTGSLFGAKPVSTIAPNTASQMQQQTGISTTNPYGTNELFTRITIPESITAPSQPRFTKVNTDTKATSLNTAYKLNPKPLFSKGSLPSASIAHATPSIDKAPQNTDKSDNETTLVKFGSSLFNPETDEALITADELLFNPDRKSFKTLLINKKKVNEALLNEKSTSPDKDIKRITFNEKSLLKDEDSVRSSIFDNVLETPTNTENKLSEASSVDHDFNERQEVSRPDLKGDLMPNGISKLPGVKGSDFTQMENGYYISPSLDTLASMSLFQLSSVTNFVVGHKDHGYIEFMEPVNLTDIPLTLICGGIIEFRPRACIVKSGNEAGFHGKGFNVRARIVCYKCFPLDKSTRKPVTNPDHALVKNHIKKFKSMPNCKFESYDPKTGTYVFAVDNAEGHHHHHH”, which “soluble on expression in E. coli” value is on record?
A: soluble

Q: Which “soluble on expression in E. coli” value does the source give for “MSLTIVAMNDVVKSFTGDIILEKVSLQLEEGERVGLIGRNGEGKSTILKILKGTEGVDSGIVTSKKGAKIGLLEQLSTVDPNIIVEQYLRTSFGELEELEKELRALEGEMATNSSEKLMNRYGDKMALFGELGGYEMDANLNKVVNGLGIGSLLSQRWGDLSGGEKTKVALAHLLLQKTDLLLLDEPTNHLDLMAVEWLTAFLQHYSGTVLVVSHDRYFLDEVVEKMVELENRELIVYHTNFSGYLKEREERLLREFQDYKDQQKKIKKMQQAIKRLRQWAMQANPPNDAMFRRAKNMERALERMEKVKRPVLTQKQMQLQFDEAGRSGQEVVVMENLSKSFSEKAIVQDVSLQIRQGERVAIIGENGAGKSTLLKIMEGKVVPDVGMIKVGASVKIASLSQQMEELNEKLTVLDAFRDKVAVTEGEARQMLAGFMFYGEMVFRKVGNISGGERMRLRLAQFINMPVNTLILDEPTNHLDIASREILEEAIRAFSGTIITVSHDRYFIDQLCSKVIWLENKQLTVYEGNYSYATSKREGHHHHHH” here?
A: not soluble

Q: For “MSLTKFVSAPLICGLALLGALSAAHAQTGIPALPPIAQPLPVPAPAPVTPPAPTVPVPQEPAPVPQPPMPQPSVPQTPAPQKPVTPRPAPAPSRAPLLIQARANVPALVAGKKTTVPVLKTLTIPAERAAQLRQRGEVSASLQADLDTFLKSLAAPRDARFEQQDDGQWAVVQPNGLKVDAQATRAAVAKVLRDPRGVSANVVVTGQVAPQRTLDFFASRGITTFLATGFTSYYGSSPERVKNIHVGAQNFKDRLFEGDVFSFNKFIGPVSERNGYVPGLVIAGDQTASGVGGGICQVSTTVFRTLYGAGLGIVQRQNHSYQVFYYDPQGLDATIYQPQLDLKFANTTGGPIWFQTEWDDQEATLTITAFGQARDYQVQVDAPKTLKTVAPPKDRLIPDASLPAGQRKQVDWAAPGATIEVTRRFTRGGKTFKQDTLRSVYRPWPNIFRVGTKKEGGSHHHHHH”, which “soluble on expression in E. coli” value is on record?
A: soluble
